Substrate: CC chemokine receptor 5 (CCR5), clone 8.5 cDNA, stably expressed on HEK 293 cells (human), P51681
Experiment: homologous competition against ^125I-RANTES on CCR5.1 cells, 37° C.
Details: remark: other sources report otherwise

Chain of CC chemokine receptor 5 (CCR5), clone 8.5 cDNA, stably expressed on HEK 293 cells (human), P51681 (P51681 whole entry): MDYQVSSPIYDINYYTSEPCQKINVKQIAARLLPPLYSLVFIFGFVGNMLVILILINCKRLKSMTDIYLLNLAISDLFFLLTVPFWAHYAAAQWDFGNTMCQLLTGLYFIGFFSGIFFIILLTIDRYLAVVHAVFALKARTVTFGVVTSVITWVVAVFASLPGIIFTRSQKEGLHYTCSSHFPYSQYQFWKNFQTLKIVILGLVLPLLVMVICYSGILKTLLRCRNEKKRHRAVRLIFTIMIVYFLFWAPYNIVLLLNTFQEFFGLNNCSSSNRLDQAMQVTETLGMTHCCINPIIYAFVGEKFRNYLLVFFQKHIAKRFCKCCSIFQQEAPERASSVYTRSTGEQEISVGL

B1: RANTES, P13501 24-91 (ligand, human, UniProt P13501 24-91, looked up)
chain: SPYSSDTTPCCFAYIARPLPRAHIKEYFYTSGKCSNPAVVFVTRKNRQVCANPEKKWVREYINSLEMS
IC50: 0.08 µM
